From patent US20190322750A1 (Y BIOLOGICS, published 2019)

T1: ITGA6
T1 construct: unrelated antigen column; all antibodies give 0.5 to 0.6
T1 sequence (P23229 whole entry, species assumed, looked up): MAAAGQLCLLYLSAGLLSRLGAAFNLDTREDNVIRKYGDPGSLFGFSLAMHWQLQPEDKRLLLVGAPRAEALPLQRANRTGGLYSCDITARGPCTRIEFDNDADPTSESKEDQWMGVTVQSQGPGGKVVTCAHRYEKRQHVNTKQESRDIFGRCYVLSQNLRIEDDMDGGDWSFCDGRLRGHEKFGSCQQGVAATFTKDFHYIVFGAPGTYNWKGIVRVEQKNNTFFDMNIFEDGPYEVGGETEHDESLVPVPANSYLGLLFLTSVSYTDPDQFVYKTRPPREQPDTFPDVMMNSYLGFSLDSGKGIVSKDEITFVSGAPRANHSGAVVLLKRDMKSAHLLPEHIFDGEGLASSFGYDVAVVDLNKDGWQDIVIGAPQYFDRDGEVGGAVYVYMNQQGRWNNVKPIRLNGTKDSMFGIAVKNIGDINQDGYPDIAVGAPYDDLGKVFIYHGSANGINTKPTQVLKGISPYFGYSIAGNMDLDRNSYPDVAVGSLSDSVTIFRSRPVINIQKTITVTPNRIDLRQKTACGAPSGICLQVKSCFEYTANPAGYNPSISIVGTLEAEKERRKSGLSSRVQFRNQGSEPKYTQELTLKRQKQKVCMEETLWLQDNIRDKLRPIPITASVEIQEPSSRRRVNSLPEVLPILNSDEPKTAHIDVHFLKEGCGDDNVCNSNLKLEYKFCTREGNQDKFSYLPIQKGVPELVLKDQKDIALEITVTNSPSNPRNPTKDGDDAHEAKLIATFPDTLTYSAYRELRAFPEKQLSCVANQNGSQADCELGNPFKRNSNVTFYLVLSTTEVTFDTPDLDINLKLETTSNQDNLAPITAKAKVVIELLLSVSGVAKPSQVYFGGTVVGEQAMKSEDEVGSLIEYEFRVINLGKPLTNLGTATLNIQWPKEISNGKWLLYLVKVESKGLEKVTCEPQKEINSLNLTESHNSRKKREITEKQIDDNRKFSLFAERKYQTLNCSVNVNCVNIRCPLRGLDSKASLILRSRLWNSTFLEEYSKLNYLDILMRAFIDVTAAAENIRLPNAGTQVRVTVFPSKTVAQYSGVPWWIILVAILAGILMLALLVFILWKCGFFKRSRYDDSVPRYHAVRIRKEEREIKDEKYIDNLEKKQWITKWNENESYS


Legend:
M6 = test: ELISA on coated antigen, column M6
Experimental: (§1) An antigen PD-L1 wild type (WT) or several mutants were coated at a density of 100 ng/well on a 96-well immunoplate at 4° C. for 16 hours and the wells were blocked with 4% skim milk dissolved in PBS. Each well was washed with 0.2 ml of PBS/T, and then a single clone scFv-phage (each […]) cultured for 16 hours was added in a dose of 100 μl to each well and reacted at room temperature for 2 hours. Again, each well was washed 4 times with 0.2 ml of PBS/T, and then the second antibody, anti-Fab, was diluted to 1/2000 and reacted at room temperature for 1 hour. After washing with 0.2 ml of PBS/T, color development was performed and absorbance was measured at 490 nm.

M1 = test: ELISA on coated antigen, column M1
Experimental: as §1

ITGA6 = biological target: T1, ITGA6; test: ELISA on coated antigen, column ITGA6
M3 = test: ELISA on coated antigen, column M3
M5 = test: ELISA on coated antigen, column M5
Experimental: as §1

M2 = test: ELISA on coated antigen, column M2
Experimental: as §1

mouse PD-L1 protein = mouse PD-L1 protein (mouse, UniProt Q9EP73 19-238, limits assumed); test: ELISA on coated antigen, column mPD-L1
Experimental: as §1

M8 = test: ELISA on coated antigen, column M8
Experimental: as §1

M7 = test: ELISA on coated antigen, column M7
M4 = test: ELISA on coated antigen, column M4
Experimental: as §1

WT = biological target: T2, WT (human, UniProt Q9NZQ7); test: ELISA on coated antigen, column WT
T2 construct: recombinant; also called hPD-L1; antigen PD-L1 wild type (WT)
Experimental: as §1

[1] = biological target: PD-L1 on CHO cell line highly expressing PD-L1 (PD-1/PD-L1 blockade bioassay kit, promega J1250) (UniProt Q9NZQ7 19-290, limits assumed); test: cell-based or functional assay
Sequence of PD-L1 on CHO cell line highly expressing PD-L1 (PD-1/PD-L1 blockade bioassay kit, promega J1250) (Q9NZQ7 19-290 limits assumed): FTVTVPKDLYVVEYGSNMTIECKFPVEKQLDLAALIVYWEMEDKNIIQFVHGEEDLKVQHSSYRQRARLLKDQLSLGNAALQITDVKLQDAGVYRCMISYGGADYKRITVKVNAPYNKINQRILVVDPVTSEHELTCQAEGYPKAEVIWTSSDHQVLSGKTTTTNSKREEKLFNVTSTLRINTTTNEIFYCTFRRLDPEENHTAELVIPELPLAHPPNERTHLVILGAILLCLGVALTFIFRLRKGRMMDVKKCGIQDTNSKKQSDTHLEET

Sequence of mouse PD-L1 protein (Q9EP73 19-238 limits assumed): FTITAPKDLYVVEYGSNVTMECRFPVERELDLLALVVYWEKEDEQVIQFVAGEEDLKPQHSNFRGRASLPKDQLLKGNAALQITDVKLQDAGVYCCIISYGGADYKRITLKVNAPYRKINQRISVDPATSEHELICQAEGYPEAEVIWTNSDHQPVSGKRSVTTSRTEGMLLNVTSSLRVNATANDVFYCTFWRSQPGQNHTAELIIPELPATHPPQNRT
T2 sequence (Q9NZQ7 19-238 limits assumed): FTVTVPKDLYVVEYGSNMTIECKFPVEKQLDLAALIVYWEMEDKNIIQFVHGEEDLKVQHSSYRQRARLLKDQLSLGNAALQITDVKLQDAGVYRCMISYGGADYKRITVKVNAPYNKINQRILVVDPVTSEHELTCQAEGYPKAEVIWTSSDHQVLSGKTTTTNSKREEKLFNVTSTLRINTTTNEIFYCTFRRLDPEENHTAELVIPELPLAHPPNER

Binder | absorbance at 490 nm (M6) | absorbance at 490 nm (M1) | absorbance at 490 nm (ITGA6) | absorbance at 490 nm (M3) | absorbance at 490 nm (M5) | absorbance at 490 nm (M2) | absorbance at 490 nm (mouse PD-L1 protein) | absorbance at 490 nm (M8) | absorbance at 490 nm (M7) | absorbance at 490 nm (M4) | absorbance at 490 nm (WT) | Average *EC50 [nM], PD-1/PD-L1 blockade bioassay [1] [nM] | binding result (mouse PD-L1 protein)
PDL1-31E6 (antibody, V domains shown, Only FR/CDR pieces are tied to the clone) VH: QVQLVQSGAEVKKPGSSVKVSCKASGGTFSSYAISWVRQAPGQGLEWMGGIIPIFGTANYAQKFQGRVTITADESTSTAYMELSSLRSEDTAVYYCARGGRSFGAFDSWGQGALVTVSS VL: DIQMTQSPATLSLSPGERATLSCTASQSISSYLAWYQQKPGQAPRLLIYDSSNRATGIPARFSGSGSGTAFTLTISSLEPEDFAVYFCQQRGQWPLTFGGGTKVDIK | 2.5 | 2.1 | 0.5 | 1 | 2.7 | 1.8 | 1.3 | 1.9 | 2.5 | 2.4 | 2.2 | – | –
PDL1-23E5 (antibody, V domains shown, Only FR/CDR pieces are tied to the clone) VH: QVQLVQSGAEVVKPGSSVKVSCKASGDTFSRYAISWVRQAPGQAPEWMGRIIPVLGAANYARKFQDRVTITADISTTTAFMELTSLRSEDTAVYYCARSLSGYSLGAFDVWGPGTLVTVSS VL: QLVLTQPPSVSGAPGQSVSISCIGSNSNIGTPYDVHWYQQIPGEAPKLLIYGSTNRPSGVPDRFSGSRSGSSASLDITGLQADDEAYYYCQSYDRSLGVSDVVFGGGTKLTVL | 2.5 | 2.4 | 0.5 | 0.9 | 2.5 | 2.4 | 2.5 | 2.6 | 2.6 | 0.5 | 2.5 | 1.61 | –
PDL1-31D9 (antibody, V domains shown, Only FR/CDR pieces are tied to the clone) VH: QMQLVESGGGLVQPGGSLRLSCSASGFTFSSYVMHWVRQAPGKGLEYVSAISSNGGSTYYADSVKGRFTISRDNSKNTLYLQMSSLRSEDTAVYYCAREHFSTYSYGVDVWGPGTTVTVSS VL: DIVMTQTPLSLPVTPGEPASISCRSSQSLLDSDDGNTYLDWYLQKPGQSPQLLIYMISFRASGVPDRFSGSGSGTDFTLKISRVEAEDSGIYYCMQRVEFPYTFGQGTKLEIK | 1.9 | 1.6 | 0.5 | 2.5 | 1.8 | 1.7 | 0.1 | 1.8 | 1.9 | 1.8 | 2.5 | – | no binding
PDL1-30B1 (antibody, V domains shown, Only FR/CDR pieces are tied to the clone) VH: QVQLVESGGGVVQPGRSLRLSCAASGFTFSSYAMHWVRQGPGKGLEWVAVISYDGSNEFYADSVKGRFTISRDNSKNTLYLQMNSLRAEDTAVYYCARGDYNGVYMDVWGQGTTVTVSS VL: DIVMTQTPLSLSVTPGQPASISCKSSQSLLHSDGKTYLYWYLQKPGQSPQLLIYEVSKRFSGVPDRFSGSGSGTDFTLKIGRVEAEDVGVYYCMQGLHLPYTFGQGTKLEIK | 2.6 | 2.6 | 0.6 | 2.8 | 2.6 | 2.5 | 0.1 | 2.7 | 2.7 | 2.6 | – | – | no binding
PDL1-27F8 (antibody, V domains shown, Only FR/CDR pieces are tied to the clone) VH: QVQLVQSGAEVKKPGSSVKVSCKASGGTFSSSAFSWVRQAPGHGLEWMGRIIPMFDMTDYAQRFQGRLTIIADESSSTAYMELSSLRSEDTAVYYCARSNPHYMDVWGQGTTVTVSS VL: QLVLTQPPSVSGAPGQRVTISCTGSNSDIGAGHDVHWYQQIPGTAPKVLIYGNTDRPSGVPDRFSGSKSGTSASLAITGLQAEDEADYYCQSYDSSLSGYVFGTGTKVTVL | 2.9 | 2.6 | 0.5 | 0.9 | 2.9 | 2.5 | 0.1 | 2 | 3 | 0.4 | 2.9 | 1.1 | no binding

Now from value to binder:

absorbance at 490 nm (M6) | absorbance at 490 nm (M1) | absorbance at 490 nm (ITGA6) | absorbance at 490 nm (M3) | absorbance at 490 nm (M5) | absorbance at 490 nm (M2) | absorbance at 490 nm (mouse PD-L1 protein) | absorbance at 490 nm (M8) | absorbance at 490 nm (M7) | absorbance at 490 nm (M4) | absorbance at 490 nm (WT) | Average *EC50 [nM], PD-1/PD-L1 blockade bioassay [1] [nM] | binding result (mouse PD-L1 protein) | Binder
2.5 | 2.3 | 0.5 | 1 | 2.5 | 2.3 | 0.2 | 2.6 | 2.5 | 0.4 | 2.5 | – | no binding | PDL1-22B10 (antibody, V domains shown, Only FR/CDR pieces are tied to the clone) VH: QVQLVQSGAEVKKPGSSVKVSCRASGGTFSSYAISWVRQAPGQGLEWMGRIIPILGIANYAQKFQGRVTITADKSTSTAYMELSSLRSEDTAVYYCARDFVLSGSATVFDPWGQGTLVTVSS VL: QFVLTQPPSVSGAPGQRVTISCTGSSTNIGAGYDVHWYQQLPGKAPKVVIYGNSNRPSGVLDRFSASKSATSASLAITGLQAEDEADYYCQSYDSSLSGYVFGTGTKVTVL
2.2 | 2.1 | 0.5 | 0.7 | 2.2 | 2.1 | 0.3 | 1 | 2.3 | 0.5 | 2.2 | – | no binding | PDL1-23E10 (scFv, V domains shown) VH: QMQLVESGAEVKKPGSSVKVSCKVSGENFRSHAISWVRQAPGQGLEWMGRIIPIVGLADYPQKFQGRVTISADESTGTAYMDLSSLRSEDTAVYYCVTGRPPWHWGQGILITVSS VL: QLVLTQPPSVSGAPGQRVTISCTGSSSNIGAGYDVHWYQQLPGTAPKLLIYSNRNRPSGVPDRFSGSKSGTSASLAITGLQAEDEADYYCQSYDSSLSGPNYVFGTGTKVTVL
2.9 | 2.8 | 0.5 | 1.1 | 2.9 | 2.7 | 1.8 | 3 | 3 | 0.7 | 2.5 | 1.74 | – | PDL1-31B7 (antibody, V domains shown, Only FR/CDR pieces are tied to the clone) VH: QVQLVESGAEVKKPGSSVKVSCKASGGTFSSYAISWVRQAPGQGLEWMGRIIPILGIANYAQKFQGRVTITADKSTSTAYMELSSLRSEDTAVYYCARASSGYSVGAFDIWGQGTMVTVSS VL: QLVLTQPPSVSAPPGQKVTISCSGSSSNIGNNYVSWYQQLPGTAPKLLIYDNNERPSGIPDRFSASKSGTSATLGISGLQTGDEADYYCGTWDSSLSAGVFGGGTKLTVL
